In the experiment the target is Ufd1–Npl4ΔZF complex (UniProt Q9ES53). Description: co-IP.

“polyubiquitin chains with lysine 63 linkages (from UniProt P0CG53 1-76)” registered a percent of the input material bound of less than 5%.

Values taken from PMC2172719.
